The target of assay [1] is T1, CD86 expressed on the cell surface of Raji B cells (human, UniProt P42081 24-329).
T1 construct: whole, on cells; Raji cells carry both CD80 and CD86; also called B7.2
T1 sequence (looked up): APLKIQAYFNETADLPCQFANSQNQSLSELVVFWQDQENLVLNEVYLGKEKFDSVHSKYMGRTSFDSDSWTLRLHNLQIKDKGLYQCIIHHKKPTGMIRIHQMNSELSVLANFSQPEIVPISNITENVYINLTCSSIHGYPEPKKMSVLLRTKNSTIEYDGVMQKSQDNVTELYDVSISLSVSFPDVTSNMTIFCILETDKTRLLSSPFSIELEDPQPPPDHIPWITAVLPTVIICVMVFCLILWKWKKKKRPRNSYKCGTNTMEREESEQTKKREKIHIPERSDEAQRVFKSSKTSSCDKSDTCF
Put plainly: FACS on Raji B cells (figure legend).

Assay [2] addresses T2, CD86 antigen (R&D systems, Cat. #. 141-B2-100) (human, UniProt P42081 26-245).
T2 construct: Bought reagent
T2 sequence (looked up): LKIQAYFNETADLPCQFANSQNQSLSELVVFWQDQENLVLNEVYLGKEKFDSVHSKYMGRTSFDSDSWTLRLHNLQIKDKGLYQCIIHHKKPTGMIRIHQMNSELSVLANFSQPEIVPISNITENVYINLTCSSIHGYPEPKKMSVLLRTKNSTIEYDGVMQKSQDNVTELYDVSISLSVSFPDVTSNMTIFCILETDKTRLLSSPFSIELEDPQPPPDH
Description: phage bio-panning of a Fab library on the bought antigen, binding checked by Fab ELISA (anti-HA-HRP). In general terms: In an ELISA, binding on a coated surface is turned into a signal by an enzyme label.

B1: 3A2 (CD86) human antibody, IgG form (antibody, V domains shown)
VH: EVQLLESGGGLVQPGGSLRLSCAASGFTFSYYSMSWVRQAPGKGLEWVSSISYGPGYTYYADSVKGRFTISRDNSKNTLYLQMNSLRAEDTAVYYCARYYYYGYYYGYYGAFDYWGQGTLVTVSS
VL: EIVLTQSPGTLSLSPGERATLSCRASQSVSSSYLAWYQQKPGQAPRLLIYGASSRATGIPDRFSGSGSGTDFTLTISRLEPEDFAVYYCQQGYYSNSTFGQGTKVEIK
notes: Converted to IgG, expressed in 293F cells
For B1, in assay [1], the binding result is given as “binds”.

B2: 3A2 (CD86), Fab clone selected from the Rz human antibody library (Fab, V domains shown)
VH: B1 VH
VL: B1 VL
notes: Fab (on phage in the panning, soluble from E. coli in the ELISA, detected with anti-HA-HRP, so it carries an HA tag)
As for B2, in assay [2], the binding result is given as “binds”.

The values above are taken from patent KR20180081029A (dated 2018).
